Data on five molecules can be found in patent US11530263B2, “IL-18 binding protein (IL-18BP) in inflammatory diseases” (AB2 BIO SA, priority 2013, dated 2022).

The chains are these.
B1: 132H4: monoclonal anti-IL-18 antibody; VH SEQ ID NO: 23, VK SEQ ID NO: 24 (antibody, V domains shown)
VH: EVKLVESGGGLVKPGGSLKLSCAASGFTFSNYAMSWVRQNPAKRLEWVATISSGGANIYYPDSVKGRFIISRDNARNTLYLQMSSLRSEDTAMYYCARGDYFNHFWFAYWGQGTLVTVSA
VL: DVLMTQTPLSLPVSLGDQASISCRSSQSIVHSNGNTYLEWYLQKPGQSPKFLIYKVSNRFSGVPDRFSGSGSGTDFTLKINRVEAEDLGIYYCFQGSHVPWTFGGGTKLEIK
modifications: Antibody 132H4 VH sequence; Antibody 132H4 VK sequence
B2: 109A6: monoclonal anti-IL-18 antibody; VH SEQ ID NO: 13, VK SEQ ID NO: 14 (antibody, V domains shown)
VH: EVQLQQSGAELVKPGASVKLSCTASGFKIKDTYIHWVIQRPAQGLEWIGRIDPANGNTIYGSKFQGKATLTADTSSNTAYIHLSSLTSGDSAVYYCAGYVWFAYWGQGTLVTVSA
VL: DVVMTQVPLSLPVSLGDQASISCRSSQRLVHSNGNTYLHWFLQKPGQSPKLLIYTVSNRFSGVPDRFSGSGSGTDFTLKISRVEAEDLGVYFCSQSTLVPWTFGGGTKLEIK
modifications: Antibody 109A6 VH sequence; Antibody 109A6 VK sequence
B3: 131B4: monoclonal anti-IL-18 antibody; VH SEQ ID NO: 18, VK SEQ ID NO: 19 (antibody, V domains shown)
VH: B2 VH with L4V, V37L, I38K, A42E, L70I, H82Q, S91T, Y95F
VL: DAVLTQTPLSLPVSLGDQASISCTSSQSLVHSNGNTYLHWYLQKPGQSPKLLIYKVSDRFSGVPDRFSGSGSGTDFTLMITRVEAEDLGVYFCSQSSLVPWTFGGGTKLEVK
modifications: Antibody 131B4 VH sequence; Antibody 131B4 VK sequence
B4: 107C6: monoclonal anti-IL-18 antibody; VH SEQ ID NO: 9, VK SEQ ID NO: 10 (antibody, V domains shown)
VH: QIQLVQSGPELKKPGETVKLSCRASGYTFTNYGMNWVKQAPGKGLKWMGWINTYSGVPTYADDFKGQFAFSLETSAATAFLQINNLKDEDTATYFCAREGYSTTRSMDYWGQGTSVTVSS
VL: DIVMSQSPSSLAVSAGEKVTMSCKSSQSLLDSRTRKNYLVWYQQKPGQSPKLLIYWASTRGSGVPDRFTGSGSGTDFTLTISSVQAEDLAVYYCKQSYNLRTFGGGTKLEIK
modifications: Antibody 107C6 VH sequence; Antibody 107C6 VK sequence
B5: 108F8: monoclonal anti-IL-18 antibody; VH SEQ ID NO: 11, VK SEQ ID NO: 12 (antibody, V domains shown)
VH: B4 VH with E10D, L11S
VL: B4 VL
modifications: Antibody 108F8 VH sequence; Antibody 108F8 VK sequence

Changes are numbered by the printed parent chain.

For the first experiment, the target named is T1, IL-18 previously complexed to IL-18BP (Homo sapiens, UniProt Q14116).
T1 sequence (Q14116 37-193): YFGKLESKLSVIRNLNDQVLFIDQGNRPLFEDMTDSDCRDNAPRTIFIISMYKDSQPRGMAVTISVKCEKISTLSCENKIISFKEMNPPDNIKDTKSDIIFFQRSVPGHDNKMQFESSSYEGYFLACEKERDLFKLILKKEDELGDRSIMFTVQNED
T1 sequence (O95998 31-194 partner): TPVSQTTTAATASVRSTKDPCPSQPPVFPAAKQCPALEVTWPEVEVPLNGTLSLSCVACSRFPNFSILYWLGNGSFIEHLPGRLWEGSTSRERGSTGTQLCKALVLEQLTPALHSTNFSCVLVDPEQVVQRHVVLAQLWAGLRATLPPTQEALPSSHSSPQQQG
Kind of experiment: Luminex screening: monoclonal antibody binding on IL-18 previously complexed to IL-18BP. Particulars: after third screening step, mRNA sequencing and clone dilution. The text has this: (§1) Mice were vaccinated aginst human interleukin-18 using a technology allowing immunization with properly folded proteins. Prior to immunization, genetically modified mice were selected for major histocompatibility complexes supposedly sensitive to IL-18 surface area epitopes binding IL-18BP. Following immunization, B cells were isolated from spleen and hybridized following standard hybridoma technology. Hybridoma were sorted onto microplates and then tested for expression of monoclonal anti-IL-18 antibodies targeting IL-18 epitopes included in IL-18BP binding site. The screening was performed in 3 sequential and selective steps: • First step. […] Potential antibodies targeting IL-18 on IL-18BP binding site were rescreened in competition with IL-18BP. For this, monoclonal antibodies were bound to Luminex beads carrying IL-18. The complex was then exposed to biotinylated IL-18BP in order to identify interference to previously identified anti-IL-18 antibodies (see Table 1, Column #2). […] A third screening program was undertaken with Luminex beads linked to IL-18BP and then complexed to interleukin-18, assuring the presentation of properly folded recombinant IL-18 to positive antibody candidates.
Turning to B1, the “Binding to IL-18 on the IL-18BP binding site” value is reported as “confirmed to bind to IL-18 on the IL-18BP binding site”.
Still for that read-out and setting: the same measure for B2: “confirmed to bind to IL-18 on the IL-18BP binding site”; for B3: “confirmed to bind to IL-18 on the IL-18BP binding site”; for B4: “confirmed to bind to IL-18 on the IL-18BP binding site”.
As to B5, the “Binding to IL-18 on the IL-18BP binding site” value is reported as “confirmed to bind to IL-18 on the IL-18BP binding site”.

The target of a further experiment is T2, human interleukin-18 (Homo sapiens, UniProt Q14116).
T2 sequence (Q14116 37-193): T1 sequence (Q14116 37-193)
Kind of experiment: Luminex screening: monoclonal antibodies binding on IL-18. Particulars: IL-18 on Luminex beads.
Description: as §1
On to B1, for which the “Monoclonal antibodies binding on IL-18, Fluorescence intensity” value is 23 839.
On the same count and under the same terms, in the case of B2 it was 25 848; in that of B3, 24 838.
Same read-out and setting: in the case of B4 it was 26 250; in that of B5, 25 126.

Another experiment addresses T3, IL-18 previously complexed to monoclonal antibody (Homo sapiens, UniProt Q14116).
T3 sequence (Q14116 37-193): T1 sequence (Q14116 37-193)
Kind of experiment: Luminex screening: biotinylated IL-18BP binding on IL-18 previously complexed to monoclonal antibody. Particulars: Column #2.
Description: as §1
For B1, the “IL-18BP binding on IL-18 previously complexed to monoclonal antibody, Fluorescence intensity” value (“IL-18BP binding … Fluorescence intensity” below) is listed as 1 488.
Still for that read-out and setting: in the case of B2 it was 913; in that of B3, 1 656.
Turning to B4, the “IL-18BP binding … Fluorescence intensity” value was 1 389.
Take B5: the “IL-18BP binding … Fluorescence intensity” value is given as 1 292.
